According to the nanobody polyreactivity screen of Harvey et al. (2022):

Assay: yeast display, Sf9 membrane polyspecificity reagent, FACS + sequencing; frameworks hold sequencing errors
Summary of the method: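 Nanobodies came from a synthetic yeast display library in Saccharomyces cerevisiae BJ5465, induced with galactose for 36–48 hours and stained for 1 hour at 4 °C with 10% biotinylated, detergent-solubilized Sf9 membrane reagent. Cells were enriched on streptavidin microbeads and then FACS-sorted, with low and high (top ~1%) gates set on anti-HA fluorescence for expression and streptavidin fluorescence for reagent binding. Each polyreactivity label reflects the gate a clone came from. Genes were amplified by colony PCR, sequenced by MiSeq 2 × 250 and filtered by CDR length.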

| Sequence | polyreactivity (PSR sort gate) |
| --- | --- |
| QFKLVESGGGLVQAGGSLRLICAASGITLNRNAMGRYRQAPGKEMELVARISRRGGTTYYADSVKGRFTISRDKAKNTVYLQMNSLKPEDTAVYYCNAGPYGGNPFDYWGQGTQVTVSS | high polyreactivity |
| QFKLVESGGGLVQAGGSLRLSCAASGSIVERKTMGWYRQAPGKEMEFVAGITQSGGRTYYADSVKGRFTISRDNAKNTVYLQMNSLKPEDTAVYYCATKTPRAWSYGYWGQGTQVTVSS | high polyreactivity |
| QFQHVESGAGLVHAGGCLRLSCSASGRTFFYNAMGWYRQPPGKEREFVASITWSGSTYYADSVKGRFTISRDNAKNTVYLLMNRLKQEDTAVYYCAADRQGGLVIDSGGYDYWGQGTQVTVSS | low polyreactivity |
| QFQHVESGGGLVQAGGSLRLSCAASGRTFGPYAMGCYIQAPGKERELVAAISSGGRTYYADSVKGRFTISRDNAKNTVYFQMNSLKPEDTAVYYCAATYGPSRYRYDYWGQGTQVTVSS | high polyreactivity |
| QFQHVESGGGLVQAGGSLRLSCAASGSTFGLYAMGWYRQAPGKERELVADITWSGGSTYYADSVKGRFTISRDNAKNTVYLQMNSLKPEDTAVYYCAARYPWVYYDFDYWGLGTQVTVSS | low polyreactivity |
| QFQHVESVGGLVQAGGSLRLSCAASGRIFPYYALGWYREAPGKERELVAAISQSDGSTYYADSVKGRFTISRDNAKNTVYLQMNSLKPEDTAVYYCAKRQASYTQHRKVRGDYWGQGPQVTVSS | low polyreactivity |
| QFQIVESGGGLVQAGGSLRLSCAASGSIFTQYAMGWYRQAPGKERELVAAITSGGSTYADSVKGRFTISRDNAMNTVYLQMKSLKPEDTAVYYCATPYSYRGVTFNYWGQGTQVTVSS | low polyreactivity |
| QFQIVESGGGLVQAGGSLRLSCAASGYTFTGNAMGWYRQATGKEREFVAGITWRTGRTYYADSVKGRFTISRDNAKNSVYVLMNSLKPEDTAVYYCNKDHQRRYFWSYDYWGQGTLVTVSS | low polyreactivity |
| QFQLAESGGGLVQAGGSLRLSCAASGFTFRDYAMGWSRQATGKERELVATISWRGGSTYYADSVKGRFTISRDNAKNTVYLQMNSLKPEDTAVYYCAKRPYQRSVPYGKYDYWGQGTQVTVSS | low polyreactivity |
| QFQLEESAGGLVQAGGSLRLSCAASGRTFADYAMGWYRPAPGKETELVAAISSGGSTYFAVSVKGRFTISRDNAKNTVYLQMNSLKPEDTAVYYCTARWGYRLGYWGQGTQVTVSS | high polyreactivity |
| QFQLEESGGGLVQAGGSLRLSCAASGPIFSYNAMGLSRQATGKERELVARINWSSGRTYYADSVKGRFTISRDNAKNTVYLQMNSLKPEDTAVYYCNRVSRGPVGGYYWGQGTQVTESS | high polyreactivity |
| QFQLEESGGGLVQAGGSLRLSCAASGSTFGDYAMGWYRQAPGKERVLVAAINFSDGSTYYADSVKGRFTISRDNAKNTVYLQMNSLKPEDSAVYYCAKQGYLVWSGWRWYDYWGQGTQGTVSS | low polyreactivity |
| QFQLEESRGGLVQAGGSLRLSCAASGRIFDLYAMGWYRQAPGKETELVATISGSGGSTYYADSVKGRFTISRDNAKNTVYLQMNSLKPEDTAVYYCAAVSVSSWYDYWGQGTQVTVSS | low polyreactivity |
| QFQLLESGGGLVHAAGSLRLSSAASVSNFLSNAMGWYRQAPGKETELVAAITTSGTSTFYADSVKGRFTSSRDNAKNTVYLHINSLTPEDTEVYCAKDYLPYLHFVAPSTGDYDYWGQGTQVTVSS | low polyreactivity |
| QFQLLESGGGLVQAAGSLRLSCAASGGIFRNYAMGWYRKAPGKERELVAAITSSGTSTYYADSVNGRFTISRDNAKNTVYLQMNSLKPEDTAVYYFAADVTARYDYWGQGTQVTVSS | high polyreactivity |
| QFQLQESGGGLVQAGGTLRLSCAASGSIFYVYGKGWYRQAPGKERELVAGINAGTNTNYADSVRGRFTISRDNAKNTVHLQMNSQKPVDTAVYYCAADGNGYQAHEYWGQGTQVTVSS | high polyreactivity |
| QFQLVDSGRGLVQAGGSLRVSCAASGITFAYYAMGWYRQAPGKERELVAAISRSGGGTYYADSVKGRFTISRDNAKNPVYLQMNSLKPEDTAVYYCNKDYPYYYAGDGRFDYWGQGTQVTVSS | high polyreactivity |
| QFQLVDSRGGLVQAGGSLRLSCAASGAIFGGYAMGWYRTAPGKARELVAGSTRSGGSTYYADSVKGRFTISRDNPKNTVYLQMNSLKPEDTAVYYCAVEIQFYRSPRIVRSYDYWGHGTQVTVSS | low polyreactivity |
| QFQLVDSRRGLVQAGGSLRVSCAASGSTFYIYAMGWSRQAPGKERELVARISGSGGSTYYADSVKGRFTISRDNAKNTVYLQMNSLKPEDTAVYYCAADDIYKYYQYYAFPYYRYDDWGQGTQVTVSS | low polyreactivity |
| QFQLVESGGCLVQAGCSLRLSCAASGFIIFSNAMGLYRQAPGKERELVAAISRIGVSTFYADSVKGRLTISRDNAKNTVYLQMNSLKPEDTAVYYCNKSNPDYDGLAIHAFDYWGQGTQVTVSS | low polyreactivity |
| QFQLVESGGGFVQAGGSLRLSCAASGRTFYPYAMGLYRQAPGKERELVAAISSSGGSTYYADSVKGRFTISRDNAKNTVYLQMNSLKPDDTAVYYCAAVASKYKYTGGMDYWGQGTQVTVSS | high polyreactivity |
| QFQLVESGGGILQAGGSLRLSCAASGFIFSSYAMGWYRQAPGKERELVAAISKRGGSTYYADSVKGRFTISRDNAKNTVYLQMNSLKPEDTAVYYCARGSYPYRSFWLTSDYWGQVTQVTVSS | high polyreactivity |

| Sequence | polyreactivity (PSR sort gate) |
| --- | --- |
| QFQLVESGGGIVQAGGSLRLSCAASGFTFVYYAMGWYRQAPGKERQLVAAITRSAGSTYYADSVKGRFTISRDNAKNTVYLQMNSLKPEDTAVYYCAALNSRYSKAQRMDYWGQGTQVTVSS | low polyreactivity |
| QFQLVESGGGLDQAGGSLRLSCAASGSIFYYNAMGWYRQAPGKERELVAAIDLNDGITYYADSVKGRFTISRDNAKNTVYLQMNSLKPEDTAVYYCAADSYYFLYDSWGQGTQVTVSS | high polyreactivity |
| QFQLVESGGGLDQAGGSLRLTCAASGLTIRWYAMGWYRQAPGKERELVAAIRWSGGSTYYADSVKGRFTISRDNAKNTVYLQMNSLKPEDTALYYCAARFLGYQSGTERDYWGQGTQVTVSS | high polyreactivity |
| QFQLVESGGGLLQAGGSLRLSCADSGFIFCEYAMGWYRQAPGKERELVAAITWSGGRTYYADSVKGRFTISRDNAKNTVYLQMNSLKTEDTAVYYCSAYGSFWYAGFGYWGQGTQVTVSS | low polyreactivity |
| QFQLVESGGGLVPAGGSLRLSCAASGRIFTGNAMGWSRQAPGKERELVASITYSDGSTYYADSVKGRFTISRDNATNTVYLKMNSLKPEDTAVYYCAADIRWGQGTQVTVSS | low polyreactivity |
| QFQLVESGGGLVQAGASLRLSCAASGSTFVRYAMGWYRQAPGKERDLVAAITWTGGITYYADSVKGRFTISRDNAKNTVYLHMNSLKPEDTAVYYCIAEQKQYEKSYDYWGQGTQVTVSS | low polyreactivity |
| QFQLVESGGGLVQAGGRLRLSCAASGVIFSYYAMGCYRQAPGKERELVAAISSSGSRTYYADSVKGRFTISRDNAKNTVYLQMNRLKPEDTAVYYCAARGAAKYGYWGQGTQVTVSS | high polyreactivity |
| QFQLVESGGGLVQAGGRLRLSCAASRSTFVLYDMGWYRQAPGKERELVAAISRSGDSTYYADSVKGRYTISRDNAKNTVYLQMNSLKPEDTAVYYCAAKRRISTGMDYWGQGTQVTVSS | high polyreactivity |
| QFQLVESGGGLVQAGGSLRLSCAASGFIFSNNAMGWYRQAPGKDRELVAAISKSGGGTSYADSVKGRFTISRDNAKNTVYLQMNSLKPDDTAVYYCAKEWRKKTDYDYWGQGTQVTVSS | high polyreactivity |
| QFQLVESGGGLVQAGGSLRLSCAASGFIFYKYAMGGYRQAPGKERELVAAISSGGSPYYADSVKGRFTISRDNAKNTVYLQMNSLKPEDTAVYYCNKVYRSYRSGFYGGDYWGQGTQVTVSS | high polyreactivity |
| QFQLVESGGGLVQAGGSLRLSCAASGFIIKFYAMGLYRQAPGKERELVATITFSSGTTYYADSVKGRFTISRDTAKNTVYLQLNSLKPEDTAVYYCAAERGVDDSARNGDYDYWGQGTQVTVSS | low polyreactivity |
| QFQLVESGGGLVQAGGSLRLSCAASGFTFDFYAMGWYRQAPGKERELVAAISKNDGTTYYADSVKGRFTISRDNAKNTVYLQMNSLKQEDTAVYYCAAPNWRDYYSSGQGTQVTVSS | low polyreactivity |
| QFQLVESGGGLVQAGGSLRLSCAASGFTFDGYAMGWYRQAPGKERELVAAISDSGDSTYYADSVKGRFTISRDNAKITVYLQMNSLKPEDTAVYYCAAGLGYYWSDYFAYDYWGQGTQVTVSS | low polyreactivity |
| QFQLVESGGGLVQAGGSLRLSCAASGFTFPYNGMGWYRQAPGKERELVAAISYGGGGKYYADSVKGRFTISRDNAKNTVYLQMNSLKPEDTAVYYCATDDPLSQINEQGMDYWGQGTQVTVSS | low polyreactivity |
| QFQLVESGGGLVQAGGSLRLSCAASGGTLYIYAMGWYRKAPGKERELVAAIRGRGGSTYADSVKGRFTISRDNAKNTVYLQMNSLKPVDTAVYYCAAYARQRSNTIYYDYWGQGTQVTVSS | high polyreactivity |
| QFQLVESGGGLVQAGGSLRLSCAASGIFVGYTMGWYRQAPGKEREFVAAIRWTDGSTYYADSVKGRFTISRDNAKNTVYLQMNSLKPEDTAVYYCAADSHDPARYYYGDEVEDEYWGQGTQVTVSS | low polyreactivity |
| QFQLVESGGGLVQAGGSLRLSCAASGIIFGAYVMGWYRQAPGKERELVAVISWSSTSTYYADSVKGRFTISRDNAKNTVYLQMNSLKPEDTAVYYCNARYLRRGDYWGQGTQVTVSS | low polyreactivity |
| QFQLVESGGGLVQAGGSLRLSCAASGIIFTTYVMGWYRQAPGKERELVAAISRGGRTYYADSVKGRFTSSRDNAKNTVYLQMNSLKPEDTAVYYCARVAYKGYGEDDYWGQGTQVTVSS | high polyreactivity |
| QFQLVESGGGLVQAGGSLRLSCAASGIIFVSYAMGGYIQAPGKETEFVAGINWNGGSTYYADSVKGRFTISRDNAKNTVYLQMNSLKPEDTAVYYCNAENYRVRQRSSVKYDYWGHGTQVTVSS | low polyreactivity |
| QFQLVESGGGLVQAGGSLRLSCAASGITFQYYAMGWYRQAPGKERDFVAAISWRSGRTYYADSVKGRFTISRDNAKNTVYLQMNSLKPEDTEVYYCAAVVHIQRSTRDYWGQGTQVTVSS | high polyreactivity |
| QFQLVESGGGLVQAGGSLRLSCAASGLTFKYYGMGWYRQAPGKERELVATISSGGRTNYADSVKGRFTISRDNAKNTVYLQMNSLKPEDTEVYYCNRPRWYGGSPYYYWGQGTQVTVSS | high polyreactivity |
